Consider 33 sequences from the Immune Epitope Database (IEDB).

Experiment [1] has as its target HLA-B*51:01. Description: IEDB peptide-MHC binding, purified MHC/competitive/radioactivity; filed as Kd, often an IC50 or EC50 that approximates it; ≥ and ≤ were set here for values at or beyond the usual limits of such assays.
The target of a further experiment is HLA-B*35:01. Described as above.
The next experiment deals with HLA-B*53:01. Described as above.
The target of another experiment is HLA-B*07:02. The description is as above.
A further experiment concerns the target HLA-A*24:03. Description: IEDB peptide-MHC binding, purified MHC/direct/fluorescence; filed as Kd, often an IC50 or EC50 that approximates it; ≥ and ≤ were set here for values at or beyond the usual limits of such assays.
A further experiment addresses HLA-A*30:01. Description: IEDB peptide-MHC binding, purified MHC/competitive/radioactivity; filed as Kd, often an IC50 or EC50 that approximates it; ≥ and ≤ were set here for values at or beyond the usual limits of such assays.
For a further experiment, the target named is HLA-A*31:01. The description is as above. To be noted: source organism: Mammarenavirus brazilense.
The target of another experiment is HLA-A*33:01. Described as above. To be noted: source organism: Mammarenavirus brazilense.
In another experiment the target is HLA-A*68:01. Described as above. To be noted: source organism: Mammarenavirus brazilense.
The next experiment deals with HLA-A*03:01. The description is as above. To be noted: source organism: Mammarenavirus brazilense.
Experiment [2] has as its target HLA-B*51:01. Description: IEDB peptide-MHC binding, purified MHC/competitive/fluorescence; filed as Kd, often an IC50 or EC50 that approximates it; ≥ and ≤ were set here for values at or beyond the usual limits of such assays.
The target in a further experiment is HLA-B*15:01. Description: IEDB peptide-MHC binding, purified MHC/competitive/radioactivity; filed as Kd, often an IC50 or EC50 that approximates it; ≥ and ≤ were set here for values at or beyond the usual limits of such assays.
A further experiment deals with HLA-B*44:02. The experiment is described as above. To be noted: source organism: Dengue virus 2 Jamaica/1409/1983.
The target in another experiment is HLA-A*01:01. Described as above.
The next experiment concerns the target HLA-A*32:01. The experiment is described as above.
A further experiment deals with HLA-A*30:02. Described as above.
The next experiment concerns the target HLA-A*29:02. The experiment is described as above.
The target of experiment [3] is HLA-A*26:01. Described as above.
Experiment [4] concerns the target HLA-A*26:01. Description: IEDB peptide-MHC binding, purified MHC/competitive/fluorescence; filed as Kd, often an IC50 or EC50 that approximates it; ≥ and ≤ were set here for values at or beyond the usual limits of such assays. To be noted: source organism: Bacillus anthracis str. A0488.
Where [5] appears, read: source organism: Dengue virus 1 Brazil/97-11/1997.
Where [6] appears, read: source organism: Dengue virus 1 Singapore/S275/1990.
[7] abbreviates: source organism: Dengue virus 4 Philippines/H241/1956.
Where [8] appears, read: source organism: Dengue virus 3 Martinique/1243/1999.
[9] abbreviates: source organism: Dengue virus 2 Jamaica/1409/1983.
[10] abbreviates: source organism: Vaccinia virus WR.
The mark [11] stands for this setting: source organism: Lymphocytic choriomeningitis virus (strain Armstrong).
Setting [12] is: source organism: Dengue virus 3 Sri Lanka/1266/2000.
The mark [13] stands for this setting: source organism: Lassa virus Josiah.

In the case of LRHPGFTVI, in the experiment with HLA-B*51:01 [1] (setting [5]), the dissociation constant (Kd) was not below 10000 nM.

As to MPSVVETLEQ, the dissociation constant Kd in the experiment with HLA-B*35:01 (setting [5]) came out at 6110 nM; in the experiment with HLA-B*53:01 (setting [5]), 1200 nM.

On to TPNLAERVL, for which, in the experiment with HLA-B*07:02 (setting [6]), the Kd was determined as 114 nM. Turning to YFHAELNYL, in the experiment with HLA-A*24:03 (source organism: Vibrio vulnificus), the Kd stood at 3.7 nM. In the case of RAKRGTAQI, the dissociation constant Kd in the experiment with HLA-A*30:01 (setting [5]) was determined as 137 nM. On to TPRSPSVEV, for which the equilibrium dissociation constant (Kd) stood at 538 nM with HLA-B*51:01 [1] (setting [7]) and 2.58 nM with HLA-B*07:02 (setting [7]). Consider STYYVHENK, for which the Kd with HLA-A*31:01 amounted to 57.3 nM; with HLA-A*30:01 (source organism: Mammarenavirus brazilense), 3320 nM; with HLA-A*33:01 it was 454 nM; with HLA-A*68:01 it was 13 nM; in the experiment with HLA-A*03:01, 5.16 nM.

In the case of LPVWLAHKVA, the dissociation constant Kd with HLA-B*35:01 (setting [8]) stood at 6680 nM. For the sequence PPFGDSYII, the Kd was 1740 nM in the experiment with HLA-B*53:01 (setting [9]) and 9780 nM with HLA-B*51:01 [1] (setting [9]). As to GVYPLSIPAT, in the experiment with HLA-A*30:01 (setting [6]), the Kd stood at 1900 nM.

CPLNQLEQF displayed a Kd with HLA-B*51:01 [2] (source organism: Entamoeba histolytica HM-1:IMSS) not below 20000 nM. Consider HAIVINPFV, for which the dissociation constant Kd in the experiment with HLA-A*30:01 (setting [10]) stood at 221 nM.

For the sequence RMAILGDTAW, the Kd with HLA-B*53:01 (setting [9]) came to 21.4 nM; with HLA-B*15:01 (setting [9]), 233 nM; with HLA-B*44:02, 451 nM. YPYSDDLTI: the Kd in the experiment with HLA-B*51:01 [2] (source organism: Escherichia coli K-12) came to 281 nM.

Consider KLSHSDYEY, for which the Kd is 2580 nM with HLA-A*01:01 (setting [11]); 6390 nM with HLA-A*32:01 (setting [11]); not below 24200 nM with HLA-A*30:01 (setting [11]); 22.5 nM with HLA-A*30:02 (setting [11]); 1260 nM with HLA-A*29:02 (setting [11]); not below 77900 nM with HLA-A*26:01 [3] (setting [11]). Consider LARWGTFKK, for which the Kd in the experiment with HLA-A*30:01 (setting [8]) stood at 316 nM.

FTTRHRKPTY: the equilibrium dissociation constant (Kd) in the experiment with HLA-A*01:01 (setting [7]) is not below 23600 nM; in the experiment with HLA-A*30:01 (setting [7]), 1960 nM. With TTTDSRCPTQ, the dissociation constant (Kd) with HLA-A*30:01 (setting [5]) was not below 51200 nM. Regarding MILPAALAF, the equilibrium dissociation constant (Kd) turned out to be 29.5 nM in the experiment with HLA-A*32:01 (setting [12]), 394 nM with HLA-B*35:01 (setting [12]) and 6.87 nM with HLA-B*15:01 (setting [12]). In the case of APTRVVAAEM, the Kd with HLA-B*35:01 (setting [8]) came out at 20.3 nM.

Turning to DIMGIPYCNY, the dissociation constant Kd with HLA-A*01:01 (setting [13]) is not below 28900 nM; in the experiment with HLA-A*32:01 (setting [13]) it was not below 69900 nM; with HLA-A*30:01 (setting [13]) it was not below 70400 nM; with HLA-A*30:02 (setting [13]), 444 nM; with HLA-A*29:02 (setting [13]), 105 nM; with HLA-A*26:01 [3] (setting [13]), 541 nM. Regarding EPIPMATYGW, the results for the dissociation constant Kd with HLA-B*53:01 (setting [5]) and with HLA-A*26:01 [3] (setting [5]) were 13.2 nM and not below 69700 nM, respectively. With RGRIGRNPK, in the experiment with HLA-A*30:01 (setting [9]), the equilibrium dissociation constant (Kd) was determined as 18.7 nM. On to VTNIELEPPF, for which the Kd in the experiment with HLA-A*30:01 (setting [7]) stood at 468 nM. As for RTKDTRIKA, the equilibrium dissociation constant (Kd) in the experiment with HLA-A*30:01 (setting [10]) amounted to 0.196 nM. As for GYAGTLQSL, in the experiment with HLA-A*24:03 (source organism: Mycobacterium tuberculosis variant bovis), the dissociation constant (Kd) turned out to be 0.9 nM.

With GPGHEEPVPM, the dissociation constant (Kd) in the experiment with HLA-B*35:01 (setting [8]) is 7200 nM. SPKRLATAIA: the dissociation constant (Kd) in the experiment with HLA-B*07:02 (setting [8]) came out at 34.1 nM.

In the case of NTVKSFLNF, the Kd in the experiment with HLA-A*26:01 [4] came out at 269 nM. In the case of SPGYVLGIFL, the Kd with HLA-B*07:02 (setting [7]) was 116 nM.

Consider ITNELNYVLW, for which the Kd in the experiment with HLA-B*53:01 (setting [7]) was determined as 483 nM. Still for that read-out and setting: in the case of CPLLVNTEPE it was 1650 nM.

Turning to IPYDPKFEK, in the experiment with HLA-B*51:01 [1] (setting [9]), the dissociation constant Kd was 2200 nM.

Usually Kd stands for the free concentration of one partner at which half of the binding sites on the other are occupied at equilibrium, for simple one-to-one binding.
